Reference: patent US20070134720

B1: Syno dTM (dRING) with 291st to 329th amino acid deletion (GST moiety removed by thrombin) (protein)
chain: KVHTFPLFAIRPMYLAMRQFKKAVTDAIMSRRAIRNMNTLYPDATPEELQAMDNVRMDVLRASLPAQSPPPPEPADQGPPPAPHPPPLLPQPPNFPQGLLPPFPPGMFPLWPPMGPFPPVPPPPSSGEAVAPPSTSAAALSRPSGAATTTAAGTSATAASATASGPGSGSAPEAGPAPGFPFPPPWMGMPLPPPFAFPPMPVPPAGFAGLTPEELRALEGHERQHLEARLQSLRNIHTLLDAAMLQINQYLTVLASLGPPRPATSVNSTEGTATTVVAAASSTSIPSSEATTPTPGASPPAPEMERPPAPESVGTEEMPEDGEPDAAELRRRRLQKLESPVAH
B2: Syno RING synoviolin protein (GST moiety removed by thrombin) (protein)
chain: IRNMNTLYPDATPEELQAMDNVCIICREEMVTGAKRLPCNHIFHTSCLRSWFQRQQTCPTCRMDVLRASLPAQSPPPPEPADQGPPPAPHPPPLLPQPPNFPQGLLPPFPPGMFPLWPPMGPFPPVPPPPSSGEAVAPPSTSAAALSRPSGA
B3: Syno dTM synoviolin protein (GST moiety removed by thrombin) (protein)
chain: KVHTFPLFAIRPMYLAMRQFKKAVTDAIMSRRAIRNMNTLYPDATPEELQAMDNVCIICREEMVTGAKRLPCNHIFHTSCLRSWFQRQQTCPTCRMDVLRASLPAQSPPPPEPADQGPPPAPHPPPLLPQPPNFPQGLLPPFPPGMFPLWPPMGPFPPVPPPPSSGEAVAPPSTSAAALSRPSGAATTTAAGTSATAASATASGPGSGSAPEAGPAPGFPFPPPWMGMPLPPPFAFPPMPVPPAGFAGLTPEELRALEGHERQHLEARLQSLRNIHTLLDAAMLQINQYLTVLASLGPPRPATSVNSTEGTATTVVAAASSTSIPSSEATTPTPGASPPAPEMERPPAPESVGTEEMPEDGEPDAAELRRRRLQKLESPVAH
B4: Syno dTM (C307S) with 307th cysteine to serine substitution (GST moiety removed by thrombin) (protein)
chain: KVHTFPLFAIRPMYLAMRQFKKAVTDAIMSRRAIRNMNTLYPDATPEELQAMDNVCIICREEMVTGAKRLPSNHIFHTSCLRSWFQRQQTCPTCRMDVLRASLPAQSPPPPEPADQGPPPAPHPPPLLPQPPNFPQGLLPPFPPGMFPLWPPMGPFPPVPPPPSSGEAVAPPSTSAAALSRPSGAATTTAAGTSATAASATASGPGSGSAPEAGPAPGFPFPPPWMGMPLPPPFAFPPMPVPPAGFAGLTPEELRALEGHERQHLEARLQSLRNIHTLLDAAMLQINQYLTVLASLGPPRPATSVNSTEGTATTVVAAASSTSIPSSEATTPTPGASPPAPEMERPPAPESVGTEEMPEDGEPDAAELRRRRLQKLESPVAH

Biological target: GST-fused P4HA1 protein (whole region of P4HA1)
Sequence (chain, as listed by the source): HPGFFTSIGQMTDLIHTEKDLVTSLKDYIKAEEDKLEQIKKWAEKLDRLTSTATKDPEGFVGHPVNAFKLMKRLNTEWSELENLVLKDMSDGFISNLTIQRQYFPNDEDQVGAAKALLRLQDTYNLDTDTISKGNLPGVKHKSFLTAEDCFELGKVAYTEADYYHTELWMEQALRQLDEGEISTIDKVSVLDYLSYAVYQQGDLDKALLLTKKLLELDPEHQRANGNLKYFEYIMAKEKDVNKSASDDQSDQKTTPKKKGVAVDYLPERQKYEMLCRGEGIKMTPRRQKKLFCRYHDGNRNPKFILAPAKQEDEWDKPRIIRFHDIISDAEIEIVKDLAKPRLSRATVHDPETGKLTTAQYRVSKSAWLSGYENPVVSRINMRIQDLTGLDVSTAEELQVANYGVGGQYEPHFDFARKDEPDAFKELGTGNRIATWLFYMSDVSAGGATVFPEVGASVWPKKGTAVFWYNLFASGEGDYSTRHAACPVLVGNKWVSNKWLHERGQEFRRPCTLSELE

Row | Protein | in vitro ubiquitination (32P-labeled ubiquitin, E1, E2 UbCH5c, ATP; SDS-PAGE autoradiography)
1 | B1 | P4HA1 was not ubiquitinated by Syno dTM (C307S) and Syno dTM (dRING)
2 | B2 | P4HA1 was ubiquitinated by Syno dTM and Syno RING
3 | B3 | P4HA1 was ubiquitinated by Syno dTM and Syno RING
4 | B4 | P4HA1 was not ubiquitinated by Syno dTM (C307S) and Syno dTM (dRING)
